The values that follow come from patent US20230395193A1 (priority 2020, published 2023).

The subject of the test is SARS-CoV-1, MERS-CoV and SARS-CoV-2 proteins in HEK293T cells. More on the design: species or system human.

B1: M-Q9NQC3 (protein, UniProt Q9NQC3 1-1192, looked up)
Reticulon-4: MEDLDQSPLVSSSDSPPRPQPAFKYQFVREPEDEEEEEEEEEEDEDEDLEELEVLERKPAAGLSAAPVPTAPAAGAPLMDFGNDFVPPAPRGPLPAAPPVAPERQPSWDPSPVSSTVPAPSPLSAAAVSPSKLPEDDEPPARPPPPPPASVSPQAEPVWTPPAPAPAAPPSTPAAPKRRGSSGSVDETLFALPAASEPVIRSSAENMDLKEQPGNTISAGQEDFPSVLLETAASLPSLSPLSAASFKEHEYLGNLSTVLPTEGTLQENVSEASKEVSEKAKTLLIDRDLTEFSELEYSEMGSSFSVSPKAESAVIVANPREEIIVKNKDEEEKLVSNNILHNQQELPTALTKLVKEDEVVSSEKAKDSFNEKRVAVEAPMREEYADFKPFERVWEVKDSKEDSDMLAAGGKIESNLESKVDKKCFADSLEQTNHEKDSESSNDDTSFPSTPEGIKDRSGAYITCAPFNPAATESIATNIFPLLGDPTSENKTDEKKIEEKKAQIVTEKNTSTKTSNPFLVAAQDSETDYVTTDNLTKVTEEVVANMPEGLTPDLVQEACESELNEVTGTKIAYETKMDLVQTSEVMQESLYPAAQLCPSFEESEATPSPVLPDIVMEAPLNSAVPSAGASVIQPSSSPLEASSVNYESIKHEPENPPPYEEAMSVSLKKVSGIKEEIKEPENINAALQETEAPYISIACDLIKETKLSAEPAPDFSDYSEMAKVEQPVPDHSELVEDSSPDSEPVDLFSDDSIPDVPQKQDETVMLVKESLTETSFESMIEYENKEKLSALPPEGGKPYLESFKLSLDNTKDTLLPDEVSTLSKKEKIPLQMEELSTAVYSNDDLFISKEAQIRETETFSDSSPIEIIDEFPTLISSKTDSFSKLAREYTDLEVSHKSEIANAPDGAGSLPCTELPHDLSLKNIQPKVEEKISFSDDFSKNGSATSKVLLLPPDVSALATQAEIESIVKPKVLVKEAEKKLPSDTEKEDRSPSAIFSAELSKTSVVDLLYWRDIKKTGVVFGASLFLLLSLTVFSIVSVTAYIALALLSVTISFRIYKGVIQAIQKSDEGHPFRAYLESEVAISEELVQKYSNSALGHVNCTIKELRRLFLVDDLVDSLKFAVLMWVFTYVGALFNGLTLLILALISLFSVPVIYERHQAQIDHYLGLANKNVKDAMAKIQAKIPGLKRKAE
For B1, the MIST_MERS worked out at 0, the MIST_SARS1 amounted to 0.4448, the MIST_SARS2 stood at 0.8738 and the Saint_MERS came to 0. For the same molecule, the Saint_SARS1 was found to be 1 and the Saint_SARS2 was found to be 1.
